Test results published in article PMC10693867 (Journal for Immunotherapy of Cancer, 2023).

Biological target: CD1d(endogenous lipid)-β2M complex, as crystallized with VHH1D17 (Homo sapiens, UniProt P15813;P61769)

B1: VHH1D5 (VHH)
VHH: EVQLVESGGGLVQAGGSLRLSCAASGSSFSSYTMGWFRQAPGKEREIVAGIRWSDESPIYADSVKGRFTISRDNAKNTLYLQMNSLKPEDTAVYYCAARLVPPGIPIPRTSESMRYWGKGTLVTVSS
binding result: binds
